Results taken from patent US20050181997A1.

Target: Flt3 3T3 cells (mFlt3/fms 3T3 cells and/or Stk 3T3 cells)
Assay: cell-based or functional assay

Substance “Pv-FRIL (FRIL family member from Phaseolus vulgaris, red kidney bean)” has a Specific Activity (u/mg) in the Flt3 3T3 assay, Superdex 75 step of 244000 u/mg.
